Reference: patent publication US20260234247A1 (published 2026)

Legend:
[1] = biological target: T1, human LILRB1 on CHOK1 cells (human, UniProt Q8NHL6 24-650); experiment: FACS binding, CHOK1-hLILRB1 cells
T1 construct: whole, on cells; also called CHOK1-hLILRB1; CHOK1-LILRB1

[2] = biological target: T2, human LILRB2 on CHOK1 cells (human, UniProt Q8N423 22-597); experiment: FACS binding, CHOK1-hLILRB2 cells
T2 construct: whole, on cells; also called CHOK1-hLILRB2; CHOK1-LILRB2
T2 sequence (Q8N423 22-597): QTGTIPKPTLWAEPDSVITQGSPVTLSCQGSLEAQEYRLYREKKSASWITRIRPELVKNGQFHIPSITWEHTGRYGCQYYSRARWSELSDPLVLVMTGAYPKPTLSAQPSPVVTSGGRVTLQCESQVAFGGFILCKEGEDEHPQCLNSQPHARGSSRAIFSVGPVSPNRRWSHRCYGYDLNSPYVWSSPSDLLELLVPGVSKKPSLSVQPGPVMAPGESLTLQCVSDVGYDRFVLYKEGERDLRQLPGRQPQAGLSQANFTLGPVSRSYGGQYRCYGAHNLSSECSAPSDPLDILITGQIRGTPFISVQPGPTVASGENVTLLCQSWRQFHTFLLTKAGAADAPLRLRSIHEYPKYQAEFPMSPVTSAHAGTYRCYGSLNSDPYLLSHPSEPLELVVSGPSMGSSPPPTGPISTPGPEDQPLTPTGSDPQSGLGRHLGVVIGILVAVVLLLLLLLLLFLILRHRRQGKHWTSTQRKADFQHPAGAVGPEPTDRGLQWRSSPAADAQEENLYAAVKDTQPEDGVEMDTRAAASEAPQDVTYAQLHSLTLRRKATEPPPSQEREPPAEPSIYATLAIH

T1 sequence (Q8NHL6 24-650): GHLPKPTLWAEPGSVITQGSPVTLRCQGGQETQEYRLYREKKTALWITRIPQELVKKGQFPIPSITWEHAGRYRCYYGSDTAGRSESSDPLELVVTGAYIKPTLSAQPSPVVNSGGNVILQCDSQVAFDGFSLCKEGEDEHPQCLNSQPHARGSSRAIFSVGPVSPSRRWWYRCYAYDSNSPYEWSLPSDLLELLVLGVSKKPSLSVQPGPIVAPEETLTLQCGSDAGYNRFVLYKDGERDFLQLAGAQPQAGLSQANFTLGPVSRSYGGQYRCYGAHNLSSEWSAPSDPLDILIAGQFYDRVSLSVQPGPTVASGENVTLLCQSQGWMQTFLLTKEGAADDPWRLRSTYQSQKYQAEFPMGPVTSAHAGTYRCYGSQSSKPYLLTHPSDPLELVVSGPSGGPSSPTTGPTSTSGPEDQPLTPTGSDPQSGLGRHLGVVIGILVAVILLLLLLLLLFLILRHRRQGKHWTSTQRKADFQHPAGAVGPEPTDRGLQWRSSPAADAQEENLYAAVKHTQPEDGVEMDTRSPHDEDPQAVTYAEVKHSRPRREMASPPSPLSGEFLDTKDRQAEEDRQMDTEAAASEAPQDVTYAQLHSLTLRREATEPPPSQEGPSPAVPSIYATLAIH

Binder	EC50 [1] [nM]	EC50 [2] [nM]	binding result [2]
LK-RB1-28 (antibody, human IgG4 S228P, kappa, V domains shown) VH: QVQLQQSGPELVKPGTSVKMSCKASGYTFTSHYIHWMKQRPGQGLDWIGWIYPGDGHTKYHEKFKGKATLTADTSSITAYMQLSLLTSEDSAVYYCVYYSDSWFPYWGQGTLVTVSA VL: DIQMTQSPASLSVSVGETVTITCRASENIYSNLAWYQQKQGKSPQLLVYAATNLADGVPSRFSGSGSGTQYSLKINSLQSEDFGNYFCQHFWGSPWTFGGGTKLEIKR	1.33	5.72	
LK-RB1-43 (antibody, human IgG4 S228P, kappa, V domains shown) VH: EFQLQQSGPELMKPGASVKISCKASGYSFTDYNMNWVKQSNGKSLEWIGIIDPNYGTTTYNQKFKGRATLTVDQSSNTAYMQLNSLTSEDSAVYYCAREGRYSWFAYWGQGTLVTVSA VL: DIQMTQSPGALSVSVGETVTITCRASENINSNLAWYQQKQGKSPQLLVYAATNLADGVPSRFSGSGSGTQYSLKINSLQSEDFGSYHCQHFWGTPFTFGSGTKLEIKR			no binding
LK-RB1-46 (antibody, human IgG4 S228P, kappa, V domains shown) VH: EVQLQQSGPELVKPGASVKISCKTSGYTFTDYYMNWVKQSHGKSLEWIGDIYPINGDISYNQKFKGKATLTVDKSSSTVYMEIRSLTYEDSAVYYCARLAQTTSGGFDYWGQGTTLTVSS VL: DIVLTQSPTSLAVSLGQRAIISCKASQSVSFAGTSLMHWYQQKPGQQPKLLIYRASNLKAGVPTRFSGSGSRTDFTLNIHPVEEDDAATYYCQQSREYPMYTFGGGTKLEIKR	0.97		no binding
LK-RB1-32 (antibody, human IgG4 S228P, kappa, V domains shown) VH: QVQLQQSGAELAKPGASVKLSCTASGYTFTTYLMHWVKQRPAQGLEWIGYINPSNDFTKYNQKFKDKATLTADTSSSTAYMQLNSLTFEDSAVYYCARNSDYDPSYWGQGTTLTVSS VL: DIQMTQSPASLSVSVGETVTITCRASENIYSSLAWYQQKQGKSPQLLVYAATNLADGVPSRFSGSGSGTQYSLKINSLQSEDFGNYYCQHFWGTWAFGGGTKLEIKR	2.44		no binding
LK-RB1-50 (antibody, human IgG4 S228P, kappa, V domains shown) VH: QVQLKQSGPGLVQPSQSLSITCTVSGFSLTSYGVHWVRQSPGKGLEWLGVIWRGGNTDYNAPFVSRLSITKDNSQSQVFFKMNSLEADDTAIYYCAKNSLDVYSSWYFDVWGTGTTVTVSS VL: QIVLSQSPAILSAFPGEKVTMTCRASSSVSFMHWYQQKPGSSPKPWIYATSNLASGVPARFSGSGSGTSYSLTISRVEAEDAATYYCQQWSSNPLTFGAGTKLELKR	2.01	605	
LK-RB1-56 (antibody, human IgG4 S228P, kappa, V domains shown) VH: QVQLKQSGPGLVQPSQSLSITCSVSGFSLTNYGVHWVRQSPGKGLEWLGVIWRGGSTDNNAAFMSRLSITKDNSKSQVFFKMNSLQADDTAIYYCAKNSDFYGSSWYFDVWGTGTTVTVSS VL: QIVLSQSPAILSASPGEKVTMTCRASSSVSFMHWYQQKPGSSPKPWIYATSNLASGVPARFSGSGSGTSYSLTISRVEAEDAATYYCQQWSRNPPTFGAGTKLELKR	1.24		no binding
LK-RB1-54 (antibody, human IgG4 S228P, kappa, V domains shown) VH: DVQLQESGPGLVKPSQSLSLTCSVTGYSITSGFYWNWIRQFPGNKLEWMGHISYDGTNNYNPSLKNRISITRDTSKNLFFLKLNSVTTEDTATFHCARGGYGGSYGFDYWGQGTTLTVSS VL: ENVLTQSPAIMSASLGEKVTMSCRASSSVNYMYWYQQKSDASPKLWIYYTSNLAPGVPVRFSGSGSGNSYSLTISSMEGEDAATYYCQQFTSSPWTFGGGTKLEIKR			no binding
LK-RB1-44 (antibody, human IgG4 S228P, kappa, V domains shown) VH: QVQLQQSGTELAKPGASVKLSCKASGYTFTNYWMHWIKQRPGQGLEWIGYVHPTSDYTKYNQKFKDKATLTADKSSSTAYMQLNSLTYEDSAVYYCTRSSLYDTNYVFDSWGQGTTLTVSS VL: DILLTQSPAILSVSPGERVSFSCRASQSIGRSIHWFQQRTNGSPSLLIKYASESISGIPSRFSGGGSGTDFTLSISNVESEDIADYYCQQSNNWPFTFGSGTKLEIKR	2.79		no binding
LK-RB1-45 (antibody, human IgG4 S228P, kappa, V domains shown) VH: QVQLQQSGTELARPGASVKLSCKASGYTFTNFWMHWIKQRPGQGLEWIGYVNPTSDYTKYNQKFKDKATLTADKSSSTAYMQLNSLTYEDSAVYYCTRSSLYDTNYVFDSWGQGTTLTVSS VL: DILLTQSPAILSVSPGERVSFSCRASQSIGRSIHWYQQRTNGSPRLLIKYASESISGIPSRFSGGGSGTDFTLSISNVESEDIADYYCQQSNNWPFTFGSGTKLEIKR	1.78		no binding
LK-RB1-37 (antibody, human IgG4 S228P, kappa, V domains shown) VH: QVQLQQPGAELVKPGASVKLSCKASGYTFTSYWMHWVKQRPGRGPEWIGRIDPNSGYARYNEKFKNKATLTADKPSSTADMHLSSLTSEDSAVYYCTRSFITTAEWFFDVWGTGTTVTVSS VL: DILLTQSPAILSVSPGERVSFSCRASQSIGTSIHWYQQRRNGSPRLLIKYTSESISGIPSRFSGSGSGTDFTLSINSVESEDIADYYCQQSNSWPHTFGGGTKLELKR	2.51		no binding
LK-RB1-17 (antibody, human IgG4 S228P, kappa, V domains shown) VH: QVQLQQPGAELVKPGASVKLSCEASGYTFTNYWIHWVKQRPGRGLEWIGRIAPNSGGTKYNEKFKTRATLTVDKASTTAYMQLSSLTSEDSAVYYCARLDGSPYYFDYWGQGTTLTVSS VL: DIVMTQSQKFMSTSIGDRVSVTCKASQNVDTNVAWYQQKPGQSPKALIYSASYRYSGIPDRFTGSGSGTDFTLTISNVQSEDLAEYFCQQYNSYPYTFGGGTKLEIKR	5.53	47.4	
LK-RB1-35 (antibody, human IgG4 S228P, kappa, V domains shown) VH: DVQLQESGPGLEKPSQSLSLTCSVTGYSITRGYQWNWIRQFPGNKLEWMGYISYDGSNNYNPSLKNRISITRDASKNQFFLKLNSVTTEDTATYYCARRSYNSIDYWGQGTTLTVSS VL: DIVLTQSPATLSVTPGDSVSLSCRASQSISSNLHWYQQKSHESPRLLIKYASQSISGIPSRFSGSGSGTDFTLSINSVETEDFGMYFCQQSNSWPLTFGAGTKLELKR	0.44		no binding
LK-RB1-38 (antibody, human IgG4 S228P, kappa, V domains shown) VH: DVQLQESGPGLVQPSQSLSLTCSVTGYSITSGYQWNWIRQLPGNKLEWMAYISFDGSNNYNPSLKNRISITRDTSKNQFFLKLKSVTTEDTATYYCARRDYDGVAYWGQGTLVTVSA VL: EIVLTQSPATLSVTPGDRVSLSCRASQNISNYLHWYQQKSHGSPRLIIKYASQSISGIPSRFSGSGSGTDFTLSINSVETEDFGMYFCQQSNSWPLTFGAGTKLELKR	2.45		no binding
LK-RB1-36 (antibody, human IgG4 S228P, kappa, V domains shown) VH: DVQLQESGPGLEKPSQSLSLTCSVTGYSITRGYQWNWIRQFPGNKLEWMGYISYDGSNNYNPSLKNRISIIRDTSKNQFFLKLNSVTTEDTATYYCARRSYNSIDYWGQGTTLTVSS VL: DIVLTQSPATLSVTPGDSVSLSCRASQSISNNLHWYQQKSHESPRLLIKYASQSISGIPSRFSGSGSGTDFTLSINSVETEDFGMYFCQQSNSWPLTFGAGTKLELKR	0.46		no binding
LK-RB1-31 (antibody, human IgG4 S228P, kappa, V domains shown) VH: QVQLKESGPGLVAPSQSLSITCTVSGFSLTSYGVSWVRQPPGKGLEWLGIIWGDGSTNYHSALKSRLSISKDNSKSQVFLKLNSLQTEDTATYYCAKPNWDYYAMDYWGQGTSVTVSS VL: DIQMTQTTSSLSASLGDRVTISCRASQDISNYLNWYLQKPDGTVKLLIYYTSRLHSGVPSRFSGSGSGTDYSLTISNLEQEDIATYFCQQGITLPCTFGGGTKLEIKR	2.91		no binding
